Assay results from patent publication US6534640B1, “Methods and compositions to alter the cell surface expression of phosphatidylserine and other clot-promoting plasma membrane phospholipids” (Blood Center Research Foundation, priority 1996, dated 2003).
“Also recorded” adds a separate entry of the source.

Key:
PL scramblase [1] = target: T1, PL scramblase (Homo sapiens, UniProt O15162); details: cited from earlier work
T1 sequence (O15162 1-318): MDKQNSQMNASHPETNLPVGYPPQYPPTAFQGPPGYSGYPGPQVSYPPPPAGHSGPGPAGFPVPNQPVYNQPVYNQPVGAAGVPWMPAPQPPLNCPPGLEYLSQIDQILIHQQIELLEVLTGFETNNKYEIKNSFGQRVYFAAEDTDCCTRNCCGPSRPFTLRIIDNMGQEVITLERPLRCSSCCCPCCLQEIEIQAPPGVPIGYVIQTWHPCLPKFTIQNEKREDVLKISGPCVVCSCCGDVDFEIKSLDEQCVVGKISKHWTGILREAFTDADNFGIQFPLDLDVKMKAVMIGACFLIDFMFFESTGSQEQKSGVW

[2] = target: T2, human erythrocyte PL scramblase (Homo sapiens, UniProt O15162); test: Treatment with hydroxylamine, then reconstitution into proteoliposomes and PL scramblase activity assay (NBD-PC); format: biochemical; details: 1 M hydroxylamine, 1 hour, room temperature, neutral pH; assay in 2 mM Ca2+, 3 hours
T2 construct: PL scramblase purified from human erythrocytes; from tissue; host or cells: human erythrocyte ghost membranes
T2 sequence (O15162 1-318): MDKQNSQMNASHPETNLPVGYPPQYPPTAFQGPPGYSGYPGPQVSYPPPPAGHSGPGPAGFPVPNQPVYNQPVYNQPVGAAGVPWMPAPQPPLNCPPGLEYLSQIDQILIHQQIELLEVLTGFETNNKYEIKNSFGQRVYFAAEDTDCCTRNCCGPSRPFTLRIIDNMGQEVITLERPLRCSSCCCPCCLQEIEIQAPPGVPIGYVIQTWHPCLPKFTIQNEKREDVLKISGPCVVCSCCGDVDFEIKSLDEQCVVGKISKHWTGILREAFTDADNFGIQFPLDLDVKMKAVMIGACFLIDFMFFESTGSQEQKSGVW
Method: Treatment with Hydroxylamine. PL scramblase was incubated 1 hour room temperature in 1 M hydroxylamine, 25 mM octylglucoside, 1 M Tris-HCl at pH 7.4. Match control samples of the protein were identically incubated under these conditions, omitting hydroxylamine. After incubation, samples were dialyzed and reconstituted into PL proteoliposomes for assay of PL scramblase activity.
Membrane reconstitution and assay. PL scramblase was reconstituted into proteliposomes and activity determined as previously described(F. Bassé, et al., supra, 1996; J. G. Stout, et al, supra, 1997).
FIG. 11 illustrates inactivation of PL scramblase by hydroxylamine. Purified human erythrocyte PL scramblase was incubated 1 hour, room temperature, in the presence of 50 mM octylglucoside, 1M TrisHCl, and either 0 (control) or 1M (hydroxylamine) hydroxylamine at pH 7.2. Untreated refers to sample maintained in low ionic strength sample buffer at 4° C. . Each sample was then dialyzed and reconstituted into proteoliposomes for assay of PL scramblase activity using NBD-PC as detailed in Bassé, et al., supra, 1996 with modifications of Stout, et al., supra, 1997. Ordinate indicates percent of total NBD-PC flipped during 3 hours. Incubation was in 2 mM Ca^2+, with correction for background measured in 0.1 mM EGTA. The error bars denote mean±SD, n=7. Combined data of three independent experiments performed on different days.

Raji cells = test: Prothrombinase assay of transfected Raji cells; format: cell-based, human; details: transformed Raji cells, 2 μM A23187, vs clones expressing GFP alone
Method: Prothrombinase Assay. Prothrombinase activity of Raji cells was determined by modification of methods previously described for platelets, using the chromogenic thrombin substrate S2238 (P. J. Sims, et al., supra, 1988). Briefly, 1×10^5 Raji cells (transfected with either pEGFP-C2 or pEGFP-C2-PL scramblase) were suspended in 200 μl HBSS containing 1% BSA in the presence of 2 nM FVa, 1.4 μM prothrombin 2.5 mM CaCl2, and 4 μM dansylarginine-N-(3-ethyl-1,5-pentanediyl)amide (to inhibit feed-back activation by thrombin), and incubated at 37° C. Ca^2+-ionophore A23187 (2 μM), or DMSO (as solvent control) was added, and prothrombin conversion was initiated by addition of 2 nM Fxa. Thrombin generation was stopped after 2 minutes by dilution into 10 mM EGTA and samples were stored on ice. Aliquots were transferred to a 96-well plate, and thrombin generated was assayed in TBS containing 1% BSA in presence of 150 μM S2238 by monitoring time-dependent changes in absorbance at 405 nm using a Thermomax plate reader (Molecular Devices, Sunnyvale, Calif.). Thrombin activity was calculated using purified thrombin as standard.

PL scramblase [3] = target: T1, PL scramblase; test: PL scramblase activity: Ca2+-dependent transbilayer movement of NBD-PC in reconstituted PC/PS proteoliposomes; format: biochemical; parameters: PCR was performed on a full-length clone using the primers; made in house; host or cells: E. coli TB1 (pMAL-C2)
Method: Reconstitution of PL scramblase or scramblase fusion protein into proteoliposomes. Reconstitution and functional activity were performed essentially as previously described (F. Bassé, et al., J. Biol. Chem. 271:17205-17210, 1996; J. G. Stout, et al., J. Clin. Invest. 99:2232-2238, 1997). Briefly, a mixture of PC and PS (9:1 molar ratio) was dried under a stream of nitrogen and resuspended in 100 mM Tris, 100 mM KCl, 0.1 mM EGTA, pH 7.4 (Tris buffer). Protein samples to be reconstituted were added to the liposomes at a final lipid concentration of 4 mg/ml in the presence of 60 mM OG, and dialyzed overnight at 4° C. against 200 vol of Tris buffer containing 1 g/L Bio-Beads SM-2. To liberate PL scramblase from MBP, the proteoliposomes were incubated 3 h at room temperature in the presence of 1/40 (w/w) factor Xa. The digestion was terminated by addition of 100 μM Glu-Gly-Arg chloromethyl ketone. Completeness of the digest was monitored by SDS-PAGE. […]
PL Scramblase activity. Scramblase activity was measured as previously described (F. Bassé, et al., supra, 1996; J. G. Stout, et al., supra, 1997 and in U.S. Ser. No. 08/790,186). […] Proteoliposomes were diluted 25-fold in Tris buffer containing 4 mM EGTA and transferred to a stirred fluorescence cuvet at 23° C. Initial fluorescence was recorded (SLM Aminco 8000 spectrof luorimeter; excitation at 470 nm, emission at 532 nm), 20 mM dithionite was added, and the fluorescence continuously monitored for a total of 120 seconds. The difference in non-quenchable fluorescence observed in presence vs. absence of CaCl2 Was attributed to Ca^2+-induced change in NBD-PC located in the outer leaflet (F. Bassé, et al., supra, 1996; J. G. Stout, et al., supra, 1997; J. C. McIntyre and R.G. Sleight, Biochemistry 30:11819-11827, 1991). Ionized [Ca^2+] was calculated using FreeCal version 4.0 software (generously provided by Dr. Lawrence F. Brass, University of Pennsylvania, Philadelphia, Pa.). […]

## O[C@H](CS)[C@H](O)CS (racemic) [dithiothreitol]
PL scramblase [1]
  PL scramblase activity after incubation in reducing agents: retention of normal PL scramblase activity

## NO [hydroxylamine]
[2]
  PL scramblase activity after incubation with hydroxylamine: near complete loss; also recorded: nearly complete inactivation

B1: recombinant PL scramblase: Recombinant human PL scramblase (SEQ ID NO:2) expressed in E. coli as MBP fusion, liberated by factor Xa (protein, listed as Homo sapiens)
chain: MDKQNSQMNASHPETNLPVGYPPQYPPTAFQGPPGYSGYPGPQVSYPPPPAGHSGPGPAGFPVPNQPVYNQPVYNQPVGAAGVPWMPAPQPPLNCPPGLEYLSQIDQILIHQQIELLEVLTGFETNNKYEIKNSFGQRVYFAAEDTDCCTRNCCGPSRPFTLRIIDNMGQEVITLERPLRCSSCCCPCCLQEIEIQAPPGVPIGYVIQTWHPCLPKFTIQNEKREDVLKISGPCVVCSCCGDVDFEIKSLDEQCVVGKISKHWTGILREAFTDADNFGIQFPLDLDVKMKAVMIGACFLIDFMFFESTGSQEQKSGVW
Raji cells
  cell capacity to catalyze the prothrombinase reaction upon entry of calcium into the cytosol: increase
PL scramblase [3]; 2 mM CaCl2, mean±SD of three measurements
  PL scramblase activity: 11.76±0.44 % of total NBD-PC flipped
PL scramblase [3]; PC/PS liposomes, absence or presence of 2 mM CaCl2
  Ca2+-dependent PL scramblase activity (transbilayer movement of NBD-PC) in liposomes: PL scramblase activity was observed
PL scramblase [3]; expressed and purified from E. coli, reconstituted in proteoliposomes
  specific PL mobilizing activity relative to the endogenous protein purified from the erythrocyte membrane: approximately 50%
